From paper PMC5556974 (Developmental cell, 2017)
Blank lines part the entries; values can stand above or below the molecule they belong to.

Columns and labels:
[1] = target: GST-CrCEP19 (Chlamydomonas reinhardtii); experiment: pull-down
GST-CEP19 (human) = GST-CEP19 (human) (UniProt Q96LK0); experiment: pull-down
[2] = target: the molecule itself

Chain of GST-CEP19 (human) (Q96LK0 whole entry): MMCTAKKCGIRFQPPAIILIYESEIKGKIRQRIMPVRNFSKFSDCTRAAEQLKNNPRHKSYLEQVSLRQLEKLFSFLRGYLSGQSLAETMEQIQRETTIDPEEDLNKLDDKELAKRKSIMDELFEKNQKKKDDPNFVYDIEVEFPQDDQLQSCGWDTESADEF

fold enhancement of binding by GTP addition [1]: 5 fold
Molecule: MYC-CrRabl2 (in vitro translated) (natural protein)

fold enhancement of binding by GTP addition (GST-CEP19 (human)): 5 fold
Molecule: MYC-RABL2B, full length (in vitro translated) (from UniProt Q9UNT1 1-228) (natural protein)

B1: untagged human RABL2B (natural protein, UniProt Q9UNT1-2 1-229, looked up)
chain: MAEDKTKPSELDQGKYDADDNVKIICLGDSAVGKSKLMERFLMDGFQPQQLSTYALTLYKHTATVDGRTILVDFWDTAGQERFQSMHASYYHKAHACIMVFDVQRKVTYRNLSTWYTELREFRPEIPCIVVANKIDADINVTQKSFNFAKKFSLPLYFVSAADGTNVVKLFNDAIRLAVSYKQNSQDFMDEIFQELENFSLEQEEEDVPDQEQSSSIETPSEEAASPHS
stoichiometry N [2]: 4
